Reference: paper PMC8034850, “A cell-based screening method using an intracellular antibody for discovering small molecules targeting the translocation protein LMO2” (Science Advances, 2021)
Positions count from the first letter of the chain named. In names and notes the source's numbering stands. Values belong to the molecule of their own block, whether it stands above or below them.

Tests used:
Format in all cases: cell-based
[1] = molecular target: T1, LMO2-iDAb LMO2dm3 interaction (Homo sapiens, UniProt P25791); experiment: BRET competition / dose-response assay on LMO2-iDAb LMO2dm3; settings: HEK-293T, HEK293T, Fig. 4C
T1 construct: LMO2 cDNA was cloned into the pEF-RLuc8-MCS and pEF-MCS-RLuc8 plasmids; expressed in transfected cells; host or cells: HEK293T
T1 sequence (P25791 1-158): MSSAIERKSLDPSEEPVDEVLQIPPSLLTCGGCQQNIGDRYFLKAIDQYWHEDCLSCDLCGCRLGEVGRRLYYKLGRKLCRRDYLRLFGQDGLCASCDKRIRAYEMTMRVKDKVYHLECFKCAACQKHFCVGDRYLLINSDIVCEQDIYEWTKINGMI
Experimental: (§1) For all BRET experiments (titration curves and competition assays), 650,000 HEK293T were seeded in each well of six-well plates. After 24 hours at 37°C, cells were transfected with a total of 1.6 μg of DNA mix, containing the donor + acceptor ± competitor plasmids, using Lipofectamine 2000 transfection reagent (Thermo Fisher Scientific). For the BRET donor saturation assays, cells were transfected with 0.05 μg of donor (LMO2) and with an increased amount of acceptor plasmid (0.025, 0.05, 0.1, 0.25, 0.5, 0.75, and/or 1 μg of DNA) equalized to a total amount of 1.6 μg of DNA with an empty vector pEF-cyto-myc. […] Cells were detached 24 hours later, washed with phosphate-buffered saline (PBS), and seeded in a white 96-well plate (clear bottom, PerkinElmer, catalog no. 6005181) in Opti-MEM without phenol red medium complemented with 4% FBS, and cells were incubated for an additional 20 to 24 hours at 37°C before the BRET assay reading. […]
(§2) BRET2 signal was determined immediately after injection of coelenterazine 400a substrate (10 μM final concentration) to cells (Cayman Chemicals) using a CLARIOstar instrument (BMG Labtech) with a luminescence module. Total GFP^2 fluorescence was detected with excitation and emission peaks set at 405 and 515 nm, respectively. Total RLuc8 luminescence was measured with the luminescence 400- to 700-nm wavelength filter. […]

[2] = molecular target: T2, LMO2-TAL1 + E47 interaction (Homo sapiens, UniProt P25791); experiment: BRET assay on LMO2-TAL1 + E47; settings: BRET competition, fig. S7D
T2 construct: LMO2 cDNA was cloned into the pEF-RLuc8-MCS and pEF-MCS-RLuc8 plasmids; expressed in transfected cells; host or cells: HEK293T
T2 sequence (P25791 1-158): T1 sequence (P25791 1-158)
Experimental: as §1, §2

LMO2-LDB1 interaction = molecular target: T3, LMO2-LDB1 interaction (Homo sapiens, UniProt P25791); experiment: BRET assay on LMO2-LDB1; settings: BRET competition, fig. S7E
T3 construct: LMO2 cDNA was cloned into the pEF-RLuc8-MCS and pEF-MCS-RLuc8 plasmids; expressed in transfected cells; host or cells: HEK293T
T3 sequence (P25791 1-158): T1 sequence (P25791 1-158)
Experimental: as §1, §2

LMO2 = molecular target: T4, LMO2 (Homo sapiens, UniProt P25791); experiment: Single-dose BRET competition of LMO2-RLuc8 and GFP2-iDAb LMO2dmx by unmutated iDAb LMO2; settings: lowest dose of competitor 0.1 μg, label = GFP2-iDAb acceptor, Fig. 2D
T4 construct: LMO2 cDNA was cloned into the pEF-RLuc8-MCS and pEF-MCS-RLuc8 plasmids; expressed in transfected cells; host or cells: HEK293T
T4 sequence (P25791 1-158): T1 sequence (P25791 1-158)

inhibition at 20 µM [1]: 45%
Molecule: COc1ccc(CN2CCN(c3nc(C(=O)Nc4ccc(-n5cccc5)cc4)co3)CC2)cc1 [Abd-L19]

effect of coexpressed nontagged iDAb on LMO2-TAL1 + E47 BRET signal [2]: inhibited BRET signal
effect of coexpressed nontagged iDAb on LMO2-LDB1 BRET signal (LMO2-LDB1 interaction): inhibited BRET signal
B1: iDAb LMO2: intracellular VH single domain antibody binding to LMO2 (antibody, V domains shown)
VH: EVQLLESGGGLVQPGGSLRLSCAASGFSFSHSPMNWVRQAPGKGLEWVSYISYNSSSIYYADSVKGRFTISRDNSKNTLYLQMNSLRAEDTAVYYCARGLTESLELTADWFDYWGQGTLVTVSS

percentage inhibition by iDAb LMO2 compared to iDAb Ctl of the interaction of the labelled acceptor iDAb with LMO2 (LMO2): ~ 90%
B2: iDAb LMO2dm3: iDAb LMO2 mutant S28G, H31G, S55A, E102A, T107A, chosen for the screen (antibody, V domains shown)
VH: B1 VH with S28G, H31G, S55A, E102A, T107A
